This is an account of results in patent US20160230205A1 (R P SCHERER TECHNOLOGIES, published 2016).

Series [1] concerns the target T1, 14 amino acid FGE substrate peptide ALCTPSRGSLFTGR
T1 chain: ALCTPSRGSLFTGR

The target in series [2] is T2, Streptomyces coelicolor formylglycine-generating enzyme (Sc-FGE), wild-type, with N-terminal hexahistidine … (Streptomyces coelicolor, UniProt Q9F3C7 1-314).
T2 construct: Made in E. coli BL21(DE3); also called S. coelicolor FGE; not shown: N-terminal hexahistidine tag and TEV protease cleavage site from the pET151-D/TOPO vector
T2 sequence (looked up): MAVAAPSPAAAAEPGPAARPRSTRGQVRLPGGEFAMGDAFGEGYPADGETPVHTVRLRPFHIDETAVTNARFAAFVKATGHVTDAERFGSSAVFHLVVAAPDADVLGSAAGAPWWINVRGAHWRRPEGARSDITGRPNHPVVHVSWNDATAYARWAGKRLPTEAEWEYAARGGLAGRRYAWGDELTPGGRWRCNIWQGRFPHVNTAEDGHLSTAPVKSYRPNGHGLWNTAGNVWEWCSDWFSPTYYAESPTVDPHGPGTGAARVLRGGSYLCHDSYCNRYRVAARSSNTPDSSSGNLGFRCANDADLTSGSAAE
In words: Michaelis-Menten kinetics from discontinuous RP-HPLC activity assay.

B1: Catalytic core of H. sapiens formylglycine-generating enzyme with TEV protease site and C-terminal His6 tag (Hs-cFGE) (protein)
chain: DRSLEANAPGPVPGERQLAHSKMVPIPAGVFTMGTDDPQIKQDGEAPARRVTIDAFYMDAYEVSNTEFEKFVNSTGYLTEVAAAPWWLPVKGANWRHPEGPDSTILHRPDHPVLHVSWNDAVAYCTWAGKRLPTEAEWEYSCRGGLHNRLFPWGNKLQPKGQHYANIWQGEFPVTNTGEDGFQGTAPVDAFPPNGYGLYNIVGNAWEWTSDWWTVHHSVEETLNPKGPPSGKDRVKKGGSYMCHRSYCYRYRCAARSQNTPDSSASNLGFRCAADRLPTMDKGENLYFQGHHHHHH
For B1, the KM result in series [1] is listed as “KM=0.34 µM”.

B2: Streptomyces coelicolor formylglycine-generating enzyme (Sc-FGE), wild-type, with N-terminal hexahistidine tag and TEV protease cleavage site, activated with … (protein)
chain: MAVAAPSPAAAAEPGPAARPRSTRGQVRLPGGEFAMGDAFGEGYPADGETPVHTVRLRPFHIDETAVTNARFAAFVKATGHVTDAERFGSSAVFHLVVAAPDADVLGSAAGAPWWINVRGAHWRRPEGARSDITGRPNHPVVHVSWNDATAYARWAGKRLPTEAEWEYAARGGLAGRRYAWGDELTPGGRWRCNIWQGRFPHVNTAEDGHLSTAPVKSYRPNGHGLWNTAGNVWEWCSDWFSPTYYAESPTVDPHGPGTGAARVLRGGSYLCHDSYCNRYRVAARSSNTPDSSSGNLGFRCANDADLTSGSAAE
In the case of B2, the KM entry in series [1] is listed as “KM=96 µM”.

B3: 14 amino acid FGE substrate peptide ALCTPSRGSLFTGR (peptide)
peptide: ALCTPSRGSLFTGR
notes: Used as substrate for both the Sc and Hs forms of the enzyme; also called Csub
Regarding B3, the binding result in series [2] is reported as “binds”.
